In patent US20030138848A1, “3D structure of polypeptides containing a TPR-structure motif with chaperone-binding function, crystals thereof and compounds for inhibition of said polypeptides” (priority 2000, published 2003):
Ends that are not written are not given here.

Legend:
[1] = target: T1, TPR1 domain of the Hop protein (Homo sapiens, UniProt P31948); test: Isothermal titration calorimetry, binding to TPR1 domain of Hop; details: ITC at 25° C.
T1 construct: Codons 1-118 (TPR1) and 223-352 (TPR2A) of human Hop protein were cloned; hexahistidine (TEV-cleavable) (N, cleaved yes); made in house; host or cells: E. coli BL21 (DE3)
Procedure: (§1) FIG. 6 is a plotting of the thermo-dynamic analysis of the interaction of TPR1 and TPR2A with the C-terminal sequences of Hsp70 and Hsp90. […] The sequence […] corresponds with the 12 C-terminal amino acid residues of Hsc70. […] corresponds with the 12 C-terminal amino acid residues of Hsp90.
(§2) 40-50 aliquots of 5•μl peptide solution (7.5 mM-15 mM) were titrated at 25° C. by injection into a 1.36 ml TPR1 (TPR2A) solution (450•M-950•M) into the chamber. Alternatively, a solution of 3 mM TPR1 (TPR2A) in 180•M C70 (C90) solution was titrated in the chamber. […] Typically, the injections were continued past the saturation limits in order to be able to determine the heat of the ligand solution. After subtracting the solution heat, the calorimetric data was analysed, where an assessment software was used, which is provided by the manufacturer (version 2.9; MicroCal Software, Inc.).

[2] = target: T2, TPR2A domain of the Hop protein (Homo sapiens, UniProt P31948); test: Isothermal titration calorimetry, binding to TPR2A domain of Hop; details: ITC at 25° C.
T2 construct: Codons 1-118 (TPR1) and 223-352 (TPR2A) of human Hop protein were cloned; hexahistidine (TEV-cleavable) (N, cleaved yes); made in house; host or cells: E. coli BL21 (DE3)
Procedure: as §1, §2

[3] = target: T3, TPR1 domain of human Hop protein (codons 1-118) (human, UniProt P31948 4-118); test: ITC, 25 °C
T3 construct: Expressed in E. coli with a removable N-terminal His6 tag, which was cleaved with TEV; It could not be checked that the entry is exactly residues 1-118; also called N-terminal TPR domain of Hop
Procedure: as §1
(§3) 40-50 aliquots of 5•μl peptide solution (7.5 mM-15 mM) were titrated at 25° C. by injection into a 1.36 ml TPR1 (TPR2A) solution (450•M-950•M) into the chamber. Alternatively, a solution of 3 mM TPR1 (TPR2A) in 180•M C70 (C90) solution was titrated in the chamber. The peptides were dissolved in and the proteins were dialysed against the buffer G (25 mM, pH 7.5, 100 mM Kac, 5 mM MgAc₂). Typically, the injections were continued past the saturation limits in order to be able to determine the heat of the ligand solution. After subtracting the solution heat, the calorimetric data was analysed, where an assessment software was used, which is provided by the manufacturer (version 2.9; MicroCal Software, Inc.).

[4] = target: T4, TPR2A domain of human Hop protein (codons 223-352) (human, UniProt P31948 225-352); test: ITC, 25 °C
T4 construct: Expressed in E. coli, His6 tag cleaved with TEV; A selenomethionine-labelled form was made for MAD phasing; also called TRP2A
Procedure: as §1, §3

T1 sequence (P31948 1-118): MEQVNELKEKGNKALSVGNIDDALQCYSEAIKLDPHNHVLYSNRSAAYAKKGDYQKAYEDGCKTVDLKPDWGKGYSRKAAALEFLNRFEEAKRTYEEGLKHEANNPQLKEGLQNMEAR
T3 sequence (P31948 other isoform, or with tags, fused parts or gaps limits assumed): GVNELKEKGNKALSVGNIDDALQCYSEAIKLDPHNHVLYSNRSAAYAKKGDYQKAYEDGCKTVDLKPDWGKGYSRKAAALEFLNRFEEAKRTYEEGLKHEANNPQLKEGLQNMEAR
T4 sequence (P31948 other isoform, or with tags, fused parts or gaps limits assumed): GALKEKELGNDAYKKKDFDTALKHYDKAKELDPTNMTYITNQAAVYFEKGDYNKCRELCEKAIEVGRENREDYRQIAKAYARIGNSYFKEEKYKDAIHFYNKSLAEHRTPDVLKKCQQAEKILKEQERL
T2 sequence (P31948 223-352): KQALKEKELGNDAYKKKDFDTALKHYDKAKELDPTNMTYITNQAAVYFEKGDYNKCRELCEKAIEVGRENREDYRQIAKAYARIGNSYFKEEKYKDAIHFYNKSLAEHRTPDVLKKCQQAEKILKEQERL

GASSGPTIEEVD [Hsp70 Dodekamer, C-terminal dodecamer of Hsp70]
binding to TPR1, result in words [1]: same affinities

C90: C-terminal domain of human Hsp90 (codons 625-732), 12 kDa fragment including dimerisation domain and authentic C-terminal
stoichiometry factor [2]: ~1 | binding to TPR1, result in words [1]: weak, non-specific binding

C70: C-terminal fragment of human Hsp70 (codons 382-641), 25 kDa domain
stoichiometry N ([1]; binding to TPR1, listed as 25 kDa fragment of human Hsp70): ~1

GSGGPTIEEVD [Hsc70 Dodekamer, peptide of the 12 C-terminal amino acid residues of Hsc70]
binding to TPR1, result in words [1]: same affinities

B1: C-terminal heptamer peptide of Hsc70 (peptide)
peptide: Ac-PTIEEVD
Kd [3]: 15 to 20 µM

B2: tetrapeptide EEVD (peptide)
peptide: Ac-EEVD
notes: also called EEVD peptide; EEVD motif
Kd [3]: ~300 µM | Kd [4]: 90 µM

B3: Hsp70 peptide GPTIEEVD (peptide)
peptide: Ac-GPTIEEVD
notes: also called structured octamer peptide
fold increase in affinity (against the EEVD motif alone) [3]: 20 fold
